This passage reports peptide exchange yield results from patent US20190040115A1 (IMMATICS BIOTECHNOLOGIES, published 2019).

B1: SLGLGFISRV (peptide)
peptide: SLGLGFISRV
B2: SLIDFVVTC (peptide)
peptide: SLIDFVVTC
B3: TLKDIVQTV (peptide)
peptide: TLKDIVQTV
B4: IQSETTVTV (peptide)
peptide: IQSETTVTV
B5: YVIDPIKGL (peptide)
peptide: YVIDPIKGL
B6: RLEAYLARV (peptide)
peptide: RLEAYLARV
B7: GLVDVLYTA (peptide)
peptide: GLVDVLYTA
B8: VLPDDLSGV (peptide)
peptide: VLPDDLSGV
B9: YIDDVFMGL (peptide)
peptide: YIDDVFMGL
B10: GVGPVPARA (peptide)
peptide: GVGPVPARA
B11: VLDVSFNRL (peptide)
peptide: VLDVSFNRL
B12: KMTQYITEL (peptide)
peptide: KMTQYITEL
B13: TVIRPLPGL (peptide)
peptide: TVIRPLPGL
B14: FLDDQETRL (peptide)
peptide: FLDDQETRL
B15: VIDDLIQKL (peptide)
peptide: VIDDLIQKL
B16: SLDAVMPHL (peptide)
peptide: SLDAVMPHL
B17: NLREILQNV (peptide)
peptide: NLREILQNV
B18: TLPNIYVTL (peptide)
peptide: TLPNIYVTL
B19: ILDDSALYL (peptide)
peptide: ILDDSALYL
B20: FVDPNGKISL (peptide)
peptide: FVDPNGKISL
B21: LMDETMKEL (peptide)
peptide: LMDETMKEL
B22: YLFAFLNHL (peptide)
peptide: YLFAFLNHL
B23: TMIEICEKL (peptide)
peptide: TMIEICEKL
B24: FLDASGAKL (peptide)
peptide: FLDASGAKL
B25: RLDDKTTNV (peptide)
peptide: RLDDKTTNV
B26: VLPAVLTRL (peptide)
peptide: VLPAVLTRL
B27: YLDKTFYNL (peptide)
peptide: YLDKTFYNL
B28: FVDGSAIQV (peptide)
peptide: FVDGSAIQV
B29: SVDEVEISV (peptide)
peptide: SVDEVEISV
B30: KQQASQVLV (peptide)
peptide: KQQASQVLV
B31: YLDTFALKL (peptide)
peptide: YLDTFALKL
B32: VLYSLVSKI (peptide)
peptide: VLYSLVSKI
B33: YVDDFGVSV (peptide)
peptide: YVDDFGVSV
B34: VVDDIVSKL (peptide)
peptide: VVDDIVSKL
B35: TLIELLLPKL (peptide)
peptide: TLIELLLPKL
B36: ALDPAYTTL (peptide)
peptide: ALDPAYTTL
B37: ALFPGDVDRL (peptide)
peptide: ALFPGDVDRL
B38: RLDEVSREL (peptide)
peptide: RLDEVSREL
B39: TLSEICEFI (peptide)
peptide: TLSEICEFI
B40: NVDENVAEL (peptide)
peptide: NVDENVAEL
B41: FLGEPASYLYL (peptide)
peptide: FLGEPASYLYL
B42: VLDTLTKVL (peptide)
peptide: VLDTLTKVL
B43: AVDATVNQV (peptide)
peptide: AVDATVNQV
B44: KLFPSPLQTL (peptide)
peptide: KLFPSPLQTL
B45: LLGEGIPSA (peptide)
peptide: LLGEGIPSA
B46: FAYDGKDYIAL (peptide)
peptide: FAYDGKDYIAL
B47: VLYEMLYGL (peptide)
peptide: VLYEMLYGL
B48: SLDQIIQHL (peptide)
peptide: SLDQIIQHL
B49: QLMEGKVVL (peptide)
peptide: QLMEGKVVL
B50: RLPDQFSKL (peptide)
peptide: RLPDQFSKL
B51: FLDVKELML (peptide)
peptide: FLDVKELML
B52: ILPSNLLTV (peptide)
peptide: ILPSNLLTV
B53: TLISDIEAVKA (peptide)
peptide: TLISDIEAVKA
B54: TLVAFLQQV (peptide)
peptide: TLVAFLQQV
B55: LLDEVLHTM (peptide)
peptide: LLDEVLHTM
B56: ILDDQTNKL (peptide)
peptide: ILDDQTNKL
B57: FLEDLVPYL (peptide)
peptide: FLEDLVPYL
B58: SLKQTVVTL (peptide)
peptide: SLKQTVVTL
B59: VLYDPVVGC (peptide)
peptide: VLYDPVVGC
B60: IMEDFTTFL (peptide)
peptide: IMEDFTTFL
B61: FLPQKIIYL (peptide)
peptide: FLPQKIIYL

This experiment addresses T1, HLA-A*02:01 (human).
T1 construct: captured on streptavidin plates; also called peptide-receptive MHC molecules
Briefly: UV peptide exchange ELISA (anti-b2m); yield grade: + >10%, ++ >20%, +++ >50, ++++ >75%. The text has this: Candidate peptides for T cell based therapies according to the present invention were further tested for their MHC binding capacity (affinity). The individual peptide-MHC complexes were produced by UV-ligand exchange, where a UV-sensitive peptide is cleaved upon UV-irradiation, and exchanged with the peptide of interest as analyzed. Only peptide candidates that can effectively bind and stabilize the peptide-receptive MHC molecules prevent dissociation of the MHC complexes. To determine the yield of the exchange reaction, an ELISA was performed based on the detection of the light chain (β2m) of stabilized MHC complexes. The assay was performed as generally described in Rodenko et al. (Rodenko et al., 2006).
96 well MAXISorp plates (NUNC) were coated over night with 2 ug/ml streptavidin in PBS at room temperature, washed 4× and blocked for 1 h at 37° C. in 2% BSA containing blocking buffer. Refolded HLA-A*02:01/MLA-001 monomers served as standards, covering the range of 15-500 ng/ml. Peptide-MHC monomers of the UV-exchange reaction were diluted 100 fold in blocking buffer. Samples were incubated for 1 h at 37° C., washed four times, incubated with 2 ug/ml HRP conjugated anti-β2m for 1 h at 37° C., washed again and detected with TMB solution that is stopped with […]. Absorption was measured at 450 nm. Candidate peptides that show a high exchange yield (preferably higher than 50%, most preferred higher than 75%) are generally preferred for a generation and production of antibodies or fragments thereof, and/or T cell receptors or fragments thereof, as they show sufficient avidity to the MHC molecules and prevent dissociation of the MHC complexes.
A general note: An ELISA detects its analyte on a solid surface through an enzyme-linked reagent.
With B1, the peptide exchange yield lay in the range of 50 to 75%.
For the molecule B2, the peptide exchange yield lay within 50 to 75%.
Regarding B3, the peptide exchange yield lay within 50 to 75%.
The same measure for B4: over 75%; for B5: 50 to 75%.
Then B6, with 50 to 75%; and B7, with 50 to 75%.
The same measure for B8: 50 to 75%; for B9: 50 to 75%; for B10: 50 to 75%.
Consider B11, for which the peptide exchange yield was 50 to 75%.
Turning to B12, the peptide exchange yield is over 75%.
For B13, the peptide exchange yield lay within 20 to 50%.
As to B14, the peptide exchange yield lay in the range of 50 to 75%.
Then B15, with 20 to 50%; and B16, with 50 to 75%; and B17, with 50 to 75%.
On to B18, for which the peptide exchange yield is 50 to 75%.
The same measure for B19: over 75%; for B20: 50 to 75%.
As for B21, the peptide exchange yield is over 75%.
As to B22, the peptide exchange yield is over 75%.
On to B23, for which the peptide exchange yield is over 75%.
For the molecule B24, the peptide exchange yield was over 75%.
Then B25, with 50 to 75%; and B26, with 50 to 75%.
The same measure for B27: 50 to 75%.
Turning to B28, the peptide exchange yield fell in the range of 50 to 75%.
Turning to B29, the peptide exchange yield lay within 50 to 75%.
Consider B30, for which the peptide exchange yield was in the range of 50 to 75%.
As for B31, the peptide exchange yield was over 75%.
B32: the peptide exchange yield is 50 to 75%.
As for B33, the peptide exchange yield lay within 50 to 75%.
With B34, the peptide exchange yield is 20 to 50%.
Then B35, with over 75%.
Consider B36, for which the peptide exchange yield fell in the range of 50 to 75%.
The same measure for B37: 50 to 75%; for B38: 50 to 75%; for B39: over 75%.
B40: the peptide exchange yield is 20 to 50%.
B41: the peptide exchange yield is over 75%.
As for B42, the peptide exchange yield was 50 to 75%.
On to B43, for which the peptide exchange yield was in the range of 50 to 75%.
The same measure for B44: over 75%; for B45: over 75%; for B46: 50 to 75%.
Then B47, with over 75%; and B48, with 50 to 75%.
The same measure for B49: over 75%; for B50: 50 to 75%.
With B51, the peptide exchange yield is over 75%.
Then B52, with 50 to 75%; and B53, with 50 to 75%; and B54, with over 75%.
Then B55, with over 75%; and B56, with 50 to 75%.
The same measure for B57: over 75%; for B58: 50 to 75%.
As to B59, the peptide exchange yield was over 75%.
For B60, the peptide exchange yield is over 75%.
As for B61, the peptide exchange yield is over 75%.
